# Positions count from the first letter of the chain named. In names and notes the source's numbering stands.
# B1: β-LS (β-lactam synthetase) (Streptomyces clavuligerus; Y348F) (protein)
# chain: MGAPVLPAAFGFLASARTGGGRAPGPVFATRGSHTDIDTPQGERSLAATLVHAPSVAPDRAVARSLTGAPTTAVLAGEIYNRDELLSVLPAGPAPEGDAELVLRLLERYDLHAFRLVNGRFATVVRTGDRVLLATDHAGSVPLYTCVAPGEVRASTEAKALAAHRDPKGFPLADARRVAGLTGVYQVPAGAVMDIDLGSGTAVTHRTWTPGLSRRILPEGEAVAAVRAALEKAVAQRVTPGDTPLVVLSGGIDSSGVAACAHRAAGELDTVSMGTDTSNEFREARAVVDHLRTRHREITIPTTELLAQLPYAVWASESVDPDIIEYLLPLTALYRALDGPERRILTGFGADIPLGGMHREDRLPALDTVLAHDMATFDGLNEMSPVLSTLAGHWTTHPYWDREVLDLLVSLEAGLKRRHGRDKWVLRAAMADALPAETVNRPKLGVHEGSGTTSSFSRLLLDHGVAEDRVHEAKRQVVRELFDLTVGGGRHPSEVDTDDVVRSVADRTARGAA
# B2: β-LS (β-lactam synthetase) (Streptomyces clavuligerus; Y348A) (protein)
# chain: B1 chain with F348A
# B3: β-LS (β-lactam synthetase) (Streptomyces clavuligerus) (protein)
# chain: B1 chain with F348Y
# B4: β-LS (β-lactam synthetase) (Streptomyces clavuligerus; E382D) (protein)
# chain: B1 chain with F348Y, E382D
# Columns and labels:
# purified protein [1] = substrate: N=C(N)NCCC[C@H](NCCC(=O)O)C(=O)O; assay: purified protein; type: biochemical, Streptomyces clavuligerus; conditions: pH 8.8, 25 °C, saturating ATP (2-4 mM), ionic strength 0.1
# purified protein [2] = substrate: O=C(O)C[C@@H]1CC[C@@H](C(=O)O)N1; assay: purified protein; type: biochemical, Streptomyces clavuligerus; conditions: pH 8.3, 25 °C, 2 mM ATP, ionic strength 0.1
protein,measurement,setting,value
B1,Km,purified protein [1],1400 ± 200 µM
same,kcat,purified protein [1],0.155 ± 0.007 s⁻¹
same,kcat/Km,purified protein [1],110 ± 20 M⁻¹ s⁻¹
B2,Km,purified protein [1],190 ± 20 µM
same,kcat,purified protein [1],0.0082 ± 0.0002 s⁻¹
same,kcat/Km,purified protein [1],43 ± 4 M⁻¹ s⁻¹
B3,Km,purified protein [2],4900 ± 700 µM
same,kcat,purified protein [2],0.026 ± 0.002 s⁻¹
B4,Km,purified protein [1],2800 ± 200 µM
same,kcat,purified protein [1],0.193 ± 0.006 s⁻¹
same,kcat/Km,purified protein [1],69 ± 6 M⁻¹ s⁻¹

# Source: article PMC2833280
